Here are results for 7 molecules from patent US20230331820A1 (GlaxoSmithKline, published 2023).

Assay [1] concerns the target T1, gEgI WT: HSV2 gEgI heterodimer comprising gE and gI wildtype ectodomains (HSV2, UniProt P89475 21-416; P06764 21-256). As to the kind of experiment: SPR binning; gEgI captured by mAb 42.
Assay [2] addresses T1, gEgI WT: HSV2 gEgI heterodimer …. Briefly: SPR binning; gEgI captured by mAb 40.
For assay [3] the target is unchanged. Briefly: SPR binning; gEgI captured by mAb 19.
Assay [4] shares this target. As to the kind of experiment: SPR binning; gEgI captured by mAb 9.
Assay [5] shares this target. Briefly: SPR binning; gEgI captured by mAb 34.
Assay [6] has the same target. As to the kind of experiment: SPR binning; gEgI captured by mAb 10.
The target is the same in assay [7]. As to the kind of experiment: SPR binning; gEgI captured by mAb 39.
The target of assay [8] is T2, gI WT: HSV2 gI wildtype ectodomain (HSV2, UniProt P06764 21-256). Briefly: ELISA, supernatant. A general note: ELISA stands for enzyme-linked immunosorbent assay.
The target of assay [9] is gEgI mutant (338): HSV2 gEgI mutant heterodimer comprising gE and gI ectodomains with insertion of a (HSV2, UniProt P89475 21-416; P06764 21-256). As to the kind of experiment: ELISA, supernatant.
In assay [10] the target is gE WT: HSV2 gE wildtype ectodomain (HSV2, UniProt P89475 21-416). Briefly: ELISA, supernatant.
Assay [11] deals with T1, gEgI WT: HSV2 gEgI heterodimer …. Briefly: SPR binning; gEgI captured by mAb 5.
For assay [12] the target is unchanged. Briefly: SPR binning; gEgI captured by mAb 24.
The target is the same in assay [13]. As to the kind of experiment: SPR binning; gEgI captured by mAb 17.
For assay [14] the target is unchanged. As to the kind of experiment: SPR binning; gEgI captured by mAb 15.
The target is the same in assay [15]. As to the kind of experiment: SPR binning; gEgI captured by mAb 20.
Assay [16] has the same target. Briefly: SPR binning; gEgI captured by mAb 45.
Assay [17] has the same target. As to the kind of experiment: Biacore SPR, gEgI CHO BMP1181 at 10 µg/ml for 180 s over the mAb. For orientation: SPR reads the build-up and loss of mass on a sensor chip optically.
For assay [18] the target is unchanged. As to the kind of experiment: Biacore SPR, gEgI HEK BMP1063 at 10 µg/ml for 180 s over the mAb.
In assay [19] the target is T2, gI WT: HSV2 gI wildtype ectodomain. Briefly: ELISA, supernatant. The source holds these as a separate data set.

Read-outs that look alike come from different tables or passages of the source.

B1: mAb clone 24 (antibody, V domains shown)
VH: EVQLQQSGPELVKPGASVKMSCKASGYTFTDYYMKWVKQSHGKSLEWIGDINPNNGDTFYNQKFKGKATLTVDKSSSTAYMQLNSLTSEDSAVYYCARRGFYYYGSRGGIMDYWGQGTSVTVSS
VL: NIMMTQSPSSLAVSAGEKVTMSCKSSQSVLYSSNQKNYLAWYQQKPGQSPKLLIYWASTRESGVPDRFTGSGSGTDFTLTISSVQAEDLAVYYCHQYLSSYTFGGGTKLEIK
B1: the RU in [1] worked out at 30.7 RU; in assay [2] it was 28.3 RU; in [3], 13.3 RU; in assay [4], 17 RU; in assay [5] it was 20.7 RU; in assay [6], 39.1 RU. For the same molecule, the RU in assay [7] amounted to 30.5 RU; in [11], 34.4 RU; in assay [12] it was 6.4 RU; in [13] it was 32.1 RU; in [14] it was 42.6 RU; in [15] it was 17.7 RU. The molecule also gave an RU in assay [16] of 26.8 RU. Besides, the results for the binding result in assay [8], in assay [9] and in assay [10] were “no binding”, “binds” and “no binding”, respectively.

B2: mAb clone 3, 21 (antibody, V domains shown)
VH: EVQLQQSGPELVKPGASVKISCKTSGYTFTEYTMHWVKQSHGKSLEWIGGINPNNGGTSYNQKFKGKATLTVDKSSSTAYMELRSLTSEDSAVYYCARSLVEGDFAYWGQGTLVTVSA
VL: DIVLTQSPASLAVSLGQRATISCRASQSVSTSSYSYMHWYQQKPGQPPKLLIKYASNLESGVPARFSGSGSGTDFTLNIHPVEEEDTATYYCQHSWEIPYTFGGGTKLEIK
Regarding B2, the results for the binding result in assay [8], in [9] and in [10] were “no binding”, “binds” and “binds”, respectively. Besides, the “RU Ag/250 RU mAbs” value in assay [17] is 3.41 RU Ag/250 RU mAbs; in assay [18] it was 5.89 RU Ag/250 RU mAbs.

B3: mAb clone 2 (antibody, V domains shown)
VH: QVQLQQSGAELVRPGTSVKVSCKASGYAFTNYLIEWVKQRPGQGLEWIGVINPGSGGTNYNEKFKGKATLTADKSSSTAYMQLSSLTSDDSAVYFCARSRGYPYAMDYWGQGTSVTVSS
VL: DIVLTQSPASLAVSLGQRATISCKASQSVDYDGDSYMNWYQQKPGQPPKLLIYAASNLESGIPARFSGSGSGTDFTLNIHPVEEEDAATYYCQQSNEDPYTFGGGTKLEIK
Turning to B3, the binding result in assay [19] is “binds”; in [9] it was “binds”; in assay [10] it was “no binding”. The “RU Ag/250 RU mAbs” value in assay [17] is -1.26 RU Ag/250 RU mAbs; in assay [18], 1.24 RU Ag/250 RU mAbs.

B4: mAb clone 17 (antibody, V domains shown)
VH: QVQLKESGPGLVAPSQSLSITCTVSGFSLTSYGVHWVRQPPGKGLEWLGVIWAGGSSNYNSALMSRLSISKDNSKSQVFLKMNSLQTDDTAMYYCARDGYGYVYYAMDYWGQGTSVTVSS
VL: DIVMTQAAPSVPVTPGESVSISCRSSKSLLHSNGNTYLYWFLQRPGQSPQLLIYRMSNLASGVPDRFSGSGSGTAFTLRISRVEAEDVGVYYCMQHLEYPFTFGAGTKLELK
Take B4: the RU is -0.8 RU in [1]; -2.4 RU in assay [2]; -6.3 RU in assay [3]; -0.5 RU in assay [4]; -9.4 RU in [5]; 4.6 RU in assay [6]. The RU in assay [7] was 0.5 RU; in assay [11], 0.5 RU; in assay [12] it was -2 RU; in assay [13], -8.7 RU; in assay [14], -6.7 RU; in [15], 2.2 RU. The RU in assay [16] was -2.6 RU. In addition, the binding result in [8] is listed as “no binding”; in [9] it was “binds”; in [10], “no binding”.

B5: mAb clone 10 (antibody, V domains shown)
VH: EVKLVESGGGLVQPGGSLRLSCATSGFTFSDFYMEWVRQPPGKRLEWIAASRNKANDYTTEYSASVKGRFIVSRDTSQSILYLQMNALRAEDTAIYYCARENYGNPAMDYWGQGTSVTVSS
VL: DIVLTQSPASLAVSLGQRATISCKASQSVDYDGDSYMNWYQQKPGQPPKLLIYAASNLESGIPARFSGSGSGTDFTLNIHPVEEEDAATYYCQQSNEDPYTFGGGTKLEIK
As to B5, the RU in assay [1] is 9.4 RU; in [2] it was 8.3 RU; in assay [3], 2.3 RU; in assay [4] it was 8.3 RU; in [5] it was 2 RU; in assay [6], 4 RU. Also, the RU in assay [7] was determined as 10.3 RU; in [11], 10.6 RU; in [12] it was 8.2 RU; in [13], 8.2 RU; in assay [14], 3.3 RU; in assay [15] it was 10.8 RU. The RU in assay [16] was -2 RU. Besides, the values for the binding result in assay [8], in [9] and in [10] were “no binding”, “binds” and “no binding”, respectively.

B6: mAb clone 20 (antibody, V domains shown)
VH: QVQLQQSGAELVRPGTSVKVSCKASGYAFTNYLIEWVKQRPGQGLEWIGVINPGSGGTNYNEKFKGKATLTADKSSSTAYMQLSSLTSDDSAVYFCARSHYGNYYAMDYWGQGTSVTVSS
VL: NIVLTQSPASLAVSLGQRATISCRASESVDSYGNSFMHWYQQKPGQPPKLLIYLASNLESGVPARFSGSGSRTDFTLTIDPVEADDAATYYCQQNNEDPWTFGGGTKLEIK
Consider B6, for which the RU amounted to 24.5 RU in assay [1]; 21.3 RU in assay [2]; 6.5 RU in assay [3]; 13 RU in [4]; 13.4 RU in [5]; 32.8 RU in assay [6]. For the same molecule, the RU in assay [7] came out at 23.8 RU; in assay [11], 25.3 RU; in assay [12], 7.3 RU; in assay [13], 24 RU; in assay [14], 18.5 RU; in [15] it was 9.7 RU. This molecule also registered an RU in [16] of 16.4 RU. The binding result is listed as “no binding” in [8], “binds” in assay [9] and “no binding” in assay [10].

B7: mAb clone 9 (antibody, V domains shown)
VH: EVQLQQSGPELEKPGASVKISCKASGYSFTGYNMNWVKQSNGKSLEWIGNIDPYYGGTSYNQKFKGKATLTLDKSSSTAYMQLKSLTSEDSAVYYCARSRFITTVVATDYYAMDYWGQGTSVTVSS
VL: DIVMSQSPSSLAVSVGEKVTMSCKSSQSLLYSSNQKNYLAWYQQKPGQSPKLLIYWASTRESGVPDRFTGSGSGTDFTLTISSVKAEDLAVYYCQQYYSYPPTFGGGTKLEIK
With B7, the RU is 7 RU in assay [1]; 6 RU in assay [2]; -5.1 RU in assay [3]; -0.4 RU in assay [4]; 0.9 RU in assay [5]; 11 RU in assay [6]. In addition, the RU is 9 RU in assay [7]; 9.4 RU in assay [11]; -0.1 RU in assay [12]; 7.8 RU in [13]; 5.5 RU in [14]; 4.8 RU in assay [15]. The molecule also registered an RU in assay [16] of 1.8 RU. For the same molecule, the figures for the binding result in assay [8], in [9] and in [10] were “no binding”, “binds” and “no binding”, respectively.
